Legend:
[1] = molecular target: synthetic peptide mimicking the type IV collagen alpha-3 chain, undigested
[2] = molecular target: synthetic peptide mimicking the type IV collagen alpha-4 chain, undigested
[3] = molecular target: monoclonal antibody raised against the C4A3-HNE target sequence; experiment: competitive ELISA: standard peptide against the biotinylated peptide on a streptavidin plate, HRP-conjugated antibody; mean of the standard curves
[4] = molecular target: monoclonal antibody raised against the C4A4-HNE target sequence; experiment: as above

B1: active neutrophil elastase purified from human cells (protein)
chain: IVGGRRARPHAWPFMVSLQLRGGHFCGATLIAPNFVMSAAHCVANVNVRAVRVVLGAHNLSRREPTRQVFAVQRIFENGYDPVNLLNDIVILQLNGSATINANVQVAQLPAQGRRLGNGVQCLAMGWGLLGRNRGIASVLQELNVTVVTSLCRRSNVCTLVRGRQAGVCFGDSGSPLVCNGLIHGIASFVRGGCASGLYPDAFAPVAQFVNWIDSIIQ
- release of the neo-epitope after 4 hours of incubation with active HNE, detected by the C4A3-HNE ELISA [1]: HNE was able to generate both neo-epitopes
- release of the neo-epitope after 4 hours of incubation with active HNE, detected by the C4A4-HNE ELISA [2]: HNE was able to generate both neo-epitopes

Binder: EGTRPGPPGP [C4A3-HNE standard/selection peptide …]
- IC50 [3]: 0.0731 mg/L

Binder: TYPGRHGPPG [C4A4-HNE standard/selection peptide …]
- IC50 [4]: 0.0336 mg/L
